The record followed here is PMC5457685, “Pellino-1 promotes lung carcinogenesis via the stabilization of Slug and Snail through K63-mediated polyubiquitination” (Cell Death and Differentiation, 2016).

This assay concerns the target T1, His-tagged Pellino-1 (human, UniProt Q96FA3 1-418).
T1 construct: Pellino-1, human; Pellino-1 FL subcloned into a His6-tagged fusion plasmid; The pull-down text names only 'His-Pellino-1'; also called His-Pellino-1; source: purified His-tagged protein
T1 sequence (looked up): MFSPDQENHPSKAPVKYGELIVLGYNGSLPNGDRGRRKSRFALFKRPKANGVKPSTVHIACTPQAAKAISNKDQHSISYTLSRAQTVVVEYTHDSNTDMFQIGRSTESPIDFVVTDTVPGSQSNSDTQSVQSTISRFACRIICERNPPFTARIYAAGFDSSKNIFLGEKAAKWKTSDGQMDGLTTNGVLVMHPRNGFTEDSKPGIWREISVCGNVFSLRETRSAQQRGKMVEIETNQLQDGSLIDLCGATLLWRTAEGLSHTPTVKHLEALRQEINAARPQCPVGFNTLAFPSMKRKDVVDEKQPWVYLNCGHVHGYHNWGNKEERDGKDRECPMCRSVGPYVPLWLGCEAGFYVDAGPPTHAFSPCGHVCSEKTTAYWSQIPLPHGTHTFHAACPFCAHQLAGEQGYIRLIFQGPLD
Description: pull-down; GST-Slug or GST-Snail adsorbed onto glutathione beads, incubated with purified His-tagged Pellino-1; bound proteins immunoblotted. The following applies: both partners purified.

B1: GST–Slug fusion protein (natural protein, human, UniProt O43623 1-268, looked up)
chain: MPRSFLVKKHFNASKKPNYSELDTHTVIISPYLYESYSMPVIPQPEILSSGAYSPITVWTTAAPFHAQLPNGLSPLSGYSSSLGRVSPPPPSDTSSKDHSGSESPISDEEERLQSKLSDPHAIEAEKFQCNLCNKTYSTFSGLAKHKQLHCDAQSRKSFSCKYCDKEYVSLGALKMHIRTHTLPCVCKICGKAFSRPWLLQGHIRTHTGEKPFSCPHCNRAFADRSNLRAHLQTHSDVKKYQCKNCSKTFSRMSLLHKHEESGCCVAH
notes: Slug, human; pGEX-KG vector encoding GST-tagged human Slug (gift); source: GST fusion protein (pGEX-KG vector) adsorbed onto glutathione beads
B1: the binding result is recorded as “binds”.
